“And” between values parts separate entries of the source, which are not always exact repeats. Identical values can stand only once. “Also recorded” adds a separate entry of the source.

Here are results for three molecules from patent US20240358731A1, “SUMO PATHWAY AS AN OXYGEN SENSOR RELEVANT TO THE PATHOPHYSIOLOGY OF PULMONARY ARTERY HYPERTENSION AND CARDIAC ARRHYTHMIA” (Northeastern University, priority 2023, published 2024).

Format in all cases: cell-based
Experiment [1] deals with T1, Kir2.4 (Homo sapiens, UniProt Q9UNX9).
T1 sequence (Q9UNX9 1-436): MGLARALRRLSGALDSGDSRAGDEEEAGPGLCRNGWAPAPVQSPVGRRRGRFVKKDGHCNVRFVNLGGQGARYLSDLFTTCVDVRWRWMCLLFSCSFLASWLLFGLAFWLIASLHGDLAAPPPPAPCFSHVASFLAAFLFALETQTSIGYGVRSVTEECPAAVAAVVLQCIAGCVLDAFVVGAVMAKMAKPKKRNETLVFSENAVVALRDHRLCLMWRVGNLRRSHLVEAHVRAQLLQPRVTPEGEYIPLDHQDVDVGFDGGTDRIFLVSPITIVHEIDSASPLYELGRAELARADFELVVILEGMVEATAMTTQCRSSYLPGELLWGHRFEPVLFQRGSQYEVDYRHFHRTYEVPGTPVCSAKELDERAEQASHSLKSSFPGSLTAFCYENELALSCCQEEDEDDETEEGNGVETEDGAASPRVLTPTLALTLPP
Put plainly: Whole-cell patch-clamp of Kir2.4 in HEK293 cells with SUMO1 or SENP1 in the recording pipette. Also on record: expressed in transfected cells. Here is the method:
Currents were measured at −80 mV in 140 mM external K+.
Similarly, currents were no longer enhanced by SENP1.
SUMOylation regulates Kir2.4 channels in mammalian cells. Next, we tested if SUMO could regulate Kir2.4 channels in mammalian cells. Kir2.4 channels were transiently expressed in HEK293 cells and studied in whole-cell mode with 140 mM bath [K]^+, using a ramp protocol from −80 to +80 mV. Purified SUMO1 or SENP1 peptide were introduced via the recording pipette. At 1 nM, SUMO1, but not heat-denatured SUMO1, inhibited Kir2.4 currents by ˜40 and 60%, respectively, within one-minute of breakthrough. In contrast, 1 nM SENP1 increased the current by ˜50% (FIG. 7).
The PIP2-dependence of SUMO-regulation. Using the 5-ptaseOCRL system, we depleted PIP2 in HEK293 cells expressing Kir2.4 and studied currents with 1 nM SUMO1, or SENP1 in the recording pipette. When currents were recorded after 5-min activation of the optogenetic probe, 5-ptaseOCRL, the inhibitory effect of 1 nM SUMO1 on Kir2.4 was reduced from ˜40% to ˜7% (FIG. 9). Current augmentation observed with SENP1 in the pipette was reduced from […] to ˜6%. These preliminary data support the conclusion that SUMO-regulation of Kir2.4 channels is PIP2-dependent.
On the technique in general: In patch-clamp work, channel activity is measured electrically.

Experiment [2] has as its target T2, Kir2.3 (Homo sapiens, UniProt P48050).
T2 construct: expressed in transfected cells; host or cells: Xenopus oocytes
T2 sequence (P48050 1-445): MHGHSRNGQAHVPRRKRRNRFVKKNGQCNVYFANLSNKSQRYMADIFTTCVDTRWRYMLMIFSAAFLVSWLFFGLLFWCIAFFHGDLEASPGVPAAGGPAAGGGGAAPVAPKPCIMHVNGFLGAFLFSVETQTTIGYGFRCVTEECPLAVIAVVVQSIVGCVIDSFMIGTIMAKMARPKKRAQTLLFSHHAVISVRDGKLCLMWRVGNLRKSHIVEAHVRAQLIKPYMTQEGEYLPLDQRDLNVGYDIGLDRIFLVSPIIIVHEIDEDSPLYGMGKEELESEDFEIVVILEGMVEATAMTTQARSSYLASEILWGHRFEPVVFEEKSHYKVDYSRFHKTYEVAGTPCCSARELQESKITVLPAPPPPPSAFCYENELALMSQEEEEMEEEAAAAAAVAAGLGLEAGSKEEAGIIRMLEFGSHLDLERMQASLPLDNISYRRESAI
Description: Two-electrode voltage-clamp of Kir2.3 currents in Xenopus oocytes. To be noted: co-expression. The text has this:
FIG. 5A discloses SEQ ID NOS 6-9, respectively, in order of appearance. […] SENP1 increases the current. […] SUMO sensitivity is transferred to Kir2.3 when the site in Kir2.1 is recreated by mutagenesis (Kir2.3-N25D).
Co-expressed SUMO decreases Kir2.4 currents in Xenopus oocytes. Using the SUMOplot algorithm to assess potential SUMOylation sites based on the canonical motif ψ-K-X-E/D, we identified the high probability SUMO site V-K54-K-D (SEQ ID NO: 4) in the N-terminal sequence of Kir2.4. SUMO covalently modifies Kir2.4 at K54 (FIG. 5) and tested the idea using two-electrode voltage-clamp (TEVC), a sensitive assay to study the regulation of Kir channels. Kir2.4 currents, assessed at −80 mV in a high K^+ (96 mM) bath solution, decreased in a dose-dependent manner with co-expression of SUMO1 (FIG. 5). Co-injection of 5 ng of human SUMO1 RNA decreased Kir2.4 currents by ˜50%. In contrast, expression of SENP1 increased Kir2.4 by ˜50%. […] The analogous sequence in Kir2.2 and Kir2.3 is V-K-K-N(SEQ ID NO: 5), which lacks the terminal aspartic acid, reduced the probability of SUMOylation from 0.93 to 0.31. Consistent with this, Kir2.3 currents were insensitive to SUMO1 and SENP1. […] This last result is consistent with a protein-protein interaction between the channel and SUMO1.

Experiment [3] concerns human pulmonary artery smooth muscle cells. Put plainly: Whole cell patch clamp of human pulmonary artery smooth muscle cells, ambient O2 vs acute hypoxia. To be noted: pretreatment with 100 nM. The text has this:
FIGS. 10A-10B show whole cell patch clamp recording of human pulmonary artery smooth muscle cells. […] The decrease is statistically significant, *, P<0.05 by Students t-test.
The hPASMCs are in primary culture and were studies by whole cell patch clamp at ambient levels of oxygen (˜21% O2) and under acute hypoxia (2% O2). Cells were studied in quasi-physiological buffers with high external concentrations of potassium using recording protocols.

In the case of “SUMO1: purified SUMO1 (small ubiquitin-related modifier) protein introduced via the recording pipette or co-expressed”, the “inhibition of Kir2.4 currents after PIP2 depletion” value in experiment [1] (1 nM SUMO1, after 5-min activation of 5-ptaseOCRL) is on record as approximately 7%. In addition, the “inhibition of Kir2.4 currents” value in experiment [1] (1 nM in pipette, 140 mM bath K+, within one-minute of breakthrough) is ~40% and ~60%. Further, the “sensitivity of Kir2.3 currents” value in experiment [2] is reported as “insensitive”.
Turning to `Cc1sc(C(=O)c2cncnc2N[C@@H]2C[C@H](COS(N)(=O)=O)[C@@H](O)C2)cc1[C@@H]1NCCc2ccc(Cl)cc21` [TAK981, Subasumstat], the “effect on hypoxia-induced change of hPASMC inward current” value in experiment [3] (2% O2) is “prevents hypoxia induced changes; also recorded: precludes the change in the current caused by acute hypoxia”. For the same molecule, the “effect on initial current in ambient O2” value in experiment [3] (ambient O2) was “does not alter the magnitude or the phenotype of the initial current”.

B1: SENP1: purified deSUMOylating enzyme (SUMO specific protease) introduced via the recording pipette or expressed (protein, UniProt Q9P0U3 1-644, looked up)
Sentrin-specific protease 1: MDDIADRMRMDAGEVTLVNHNSVFKTHLLPQTGFPEDQLSLSDQQILSSRQGHLDRSFTCSTRSAAYNPSYYSDNPSSDSFLGSGDLRTFGQSANGQWRNSTPSSSSSLQKSRNSRSLYLETRKTSSGLSNSFAGKSNHHCHVSAYEKSFPIKPVPSPSWSGSCRRSLLSPKKTQRRHVSTAEETVQEEEREIYRQLLQMVTGKQFTIAKPTTHFPLHLSRCLSSSKNTLKDSLFKNGNSCASQIIGSDTSSSGSASILTNQEQLSHSVYSLSSYTPDVAFGSKDSGTLHHPHHHHSVPHQPDNLAASNTQSEGSDSVILLKVKDSQTPTPSSTFFQAELWIKELTSVYDSRARERLRQIEEQKALALQLQNQRLQEREHSVHDSVELHLRVPLEKEIPVTVVQETQKKGHKLTDSEDEFPEITEEMEKEIKNVFRNGNQDEVLSEAFRLTITRKDIQTLNHLNWLNDEIINFYMNMLMERSKEKGLPSVHAFNTFFFTKLKTAGYQAVKRWTKKVDVFSVDILLVPIHLGVHWCLAVVDFRKKNITYYDSMGGINNEACRILLQYLKQESIDKKRKEFDTNGWQLFSKKSQEIPQQMNGSDCGMFACKYADCITKDRPINFTQQHMPYFRKRMVWEILHRKLL
In the case of B1, in experiment [1] (1 nM SENP1 in pipette), the “increase of Kir2.4 current” value is ~50% and ~40%. Further, the “Kir2.4 current augmentation after PIP2 depletion” value in experiment [1] (1 nM SENP1 in pipette, after 5-min activation of 5-ptaseOCRL) is listed as approximately 6%. In addition, in experiment [2], the “sensitivity of Kir2.3 currents” value was “insensitive”.
